Experimental data as given in IntAct's records for PubMed 20485341.

B1: Interleukin-1 receptor-associated kinase 4 (Homo sapiens), Q9NWZ3 (parent)
chain: MNKPITPSTYVRCLNVGLIRKLSDFIDPQEGWKKLAVAIKKPSGDDRYNQFHIRRFEALLQTGKSPTSELLFDWGTTNCTVGDLVDLLIQNEFFAPASLLLPDAVPKTANTLPSKEAITVQQKQMPFCDKDRTLMTPVQNLEQSYMPPDSSSPENKSLEVSDTRFHSFSFYELKNVTNNFDERPISVGGNKMGEGGFGVVYKGYVNNTTVAVKKLAAMVDITTEELKQQFDQEIKVMAKCQHENLVELLGFSSDGDDLCLVYVYMPNGSLLDRLSCLDGTPPLSWHMRCKIAQGAANGINFLHENHHIHRDIKSANILLDEAFTAKISDFGLARASEKFAQTVMTSRIVGTTAYMAPEALRGEITPKSDIYSFGVVLLEIITGLPAVDEHREPQLLLDIKEEIEDEEKTIEDYIDKKMNDADSTSVEAMYSVASQCLHEKKNKRPDIKKVQQLLQEMTAS
partner: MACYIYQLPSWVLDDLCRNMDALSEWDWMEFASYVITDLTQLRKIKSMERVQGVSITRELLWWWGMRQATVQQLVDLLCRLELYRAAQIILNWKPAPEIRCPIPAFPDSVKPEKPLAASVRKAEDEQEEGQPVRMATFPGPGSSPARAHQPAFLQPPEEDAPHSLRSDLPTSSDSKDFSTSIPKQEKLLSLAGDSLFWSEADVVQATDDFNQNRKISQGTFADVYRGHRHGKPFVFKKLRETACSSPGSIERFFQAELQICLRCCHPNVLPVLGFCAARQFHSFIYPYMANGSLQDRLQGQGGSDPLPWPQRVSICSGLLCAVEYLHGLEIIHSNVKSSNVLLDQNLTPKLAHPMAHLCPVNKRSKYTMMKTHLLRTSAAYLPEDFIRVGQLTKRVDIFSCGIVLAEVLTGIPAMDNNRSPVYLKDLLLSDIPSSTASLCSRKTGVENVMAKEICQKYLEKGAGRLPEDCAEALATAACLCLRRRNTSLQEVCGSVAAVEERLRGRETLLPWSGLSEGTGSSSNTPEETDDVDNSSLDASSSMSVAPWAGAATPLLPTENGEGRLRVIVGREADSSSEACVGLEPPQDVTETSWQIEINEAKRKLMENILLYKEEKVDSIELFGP
B2: Interleukin-1 receptor-associated kinase 4 (Homo sapiens), Q9NWZ3 (parent)
chain: B1 chain

Variants of: B1
Details: with irak2_human IRAK2, O43187

Effect of a mutation on the interaction, disrupting interaction:
MNKPITPSTYVRCLNVGLIRKLSDFIDPQEGWKKLAVAIKKPSGDDRYNQFHIDRFEALLQTGKSPTSELLFDWGTTNCTVGDLVDLLIQNEFFAPASLLLPDAVPKTANTLPSKEAITVQQKQMPFCDKDRTLMTPVQNLEQSYMPPDSSSPENKSLEVSDTRFHSFSFYELKNVTNNFDERPISVGGNKMGEGGFGVVYKGYVNNTTVAVKKLAAMVDITTEELKQQFDQEIKVMAKCQHENLVELLGFSSDGDDLCLVYVYMPNGSLLDRLSCLDGTPPLSWHMRCKIAQGAANGINFLHENHHIHRDIKSANILLDEAFTAKISDFGLARASEKFAQTVMTSRIVGTTAYMAPEALRGEITPKSDIYSFGVVLLEIITGLPAVDEHREPQLLLDIKEEIEDEEKTIEDYIDKKMNDADSTSVEAMYSVASQCLHEKKNKRPDIKKVQQLLQEMTAS [R54D]
MNKPITPSTYVRCLNVGLIRKLSDFIDPQEGWKKLAVAIKKPSGDDRYNQDHIRRFEALLQTGKSPTSELLFDWGTTNCTVGDLVDLLIQNEFFAPASLLLPDAVPKTANTLPSKEAITVQQKQMPFCDKDRTLMTPVQNLEQSYMPPDSSSPENKSLEVSDTRFHSFSFYELKNVTNNFDERPISVGGNKMGEGGFGVVYKGYVNNTTVAVKKLAAMVDITTEELKQQFDQEIKVMAKCQHENLVELLGFSSDGDDLCLVYVYMPNGSLLDRLSCLDGTPPLSWHMRCKIAQGAANGINFLHENHHIHRDIKSANILLDEAFTAKISDFGLARASEKFAQTVMTSRIVGTTAYMAPEALRGEITPKSDIYSFGVVLLEIITGLPAVDEHREPQLLLDIKEEIEDEEKTIEDYIDKKMNDADSTSVEAMYSVASQCLHEKKNKRPDIKKVQQLLQEMTAS [F51D]
MNKPITPSTYVRCLNVGLIRKLSDFIDPQEGWKKLAVAIKKPSGDDRYNQFHIRRFEALLQTGKSPTSELLFDWGTTNCTVGDLVDLLIQNEFFKPASLLLPDAVPKTANTLPSKEAITVQQKQMPFCDKDRTLMTPVQNLEQSYMPPDSSSPENKSLEVSDTRFHSFSFYELKNVTNNFDERPISVGGNKMGEGGFGVVYKGYVNNTTVAVKKLAAMVDITTEELKQQFDQEIKVMAKCQHENLVELLGFSSDGDDLCLVYVYMPNGSLLDRLSCLDGTPPLSWHMRCKIAQGAANGINFLHENHHIHRDIKSANILLDEAFTAKISDFGLARASEKFAQTVMTSRIVGTTAYMAPEALRGEITPKSDIYSFGVVLLEIITGLPAVDEHREPQLLLDIKEEIEDEEKTIEDYIDKKMNDADSTSVEAMYSVASQCLHEKKNKRPDIKKVQQLLQEMTAS [A95K]
MNKPITPSTYVRCLNVGLIRKLSDDIDPQEGWKKLAVAIKKPSGDDRYNQFHIRRFEALLQTGKSPTSELLFDWGTTNCTVGDLVDLLIQNEFFAPASLLLPDAVPKTANTLPSKEAITVQQKQMPFCDKDRTLMTPVQNLEQSYMPPDSSSPENKSLEVSDTRFHSFSFYELKNVTNNFDERPISVGGNKMGEGGFGVVYKGYVNNTTVAVKKLAAMVDITTEELKQQFDQEIKVMAKCQHENLVELLGFSSDGDDLCLVYVYMPNGSLLDRLSCLDGTPPLSWHMRCKIAQGAANGINFLHENHHIHRDIKSANILLDEAFTAKISDFGLARASEKFAQTVMTSRIVGTTAYMAPEALRGEITPKSDIYSFGVVLLEIITGLPAVDEHREPQLLLDIKEEIEDEEKTIEDYIDKKMNDADSTSVEAMYSVASQCLHEKKNKRPDIKKVQQLLQEMTAS [F25D]
MNKPITPSTYVRCLNVGLIRKLSDFIDPQEGWKKLAVAIKKPSGDDRYNKFHIRRFEALLQTGKSPTSELLFDWGTTNCTVGDLVDLLIQNEFFAPASLLLPDAVPKTANTLPSKEAITVQQKQMPFCDKDRTLMTPVQNLEQSYMPPDSSSPENKSLEVSDTRFHSFSFYELKNVTNNFDERPISVGGNKMGEGGFGVVYKGYVNNTTVAVKKLAAMVDITTEELKQQFDQEIKVMAKCQHENLVELLGFSSDGDDLCLVYVYMPNGSLLDRLSCLDGTPPLSWHMRCKIAQGAANGINFLHENHHIHRDIKSANILLDEAFTAKISDFGLARASEKFAQTVMTSRIVGTTAYMAPEALRGEITPKSDIYSFGVVLLEIITGLPAVDEHREPQLLLDIKEEIEDEEKTIEDYIDKKMNDADSTSVEAMYSVASQCLHEKKNKRPDIKKVQQLLQEMTAS [Q50K]

Variants of: B2
Details: with MYD88, Q99836-1
MYD88, Q99836-1, sequence (Q99836 whole entry): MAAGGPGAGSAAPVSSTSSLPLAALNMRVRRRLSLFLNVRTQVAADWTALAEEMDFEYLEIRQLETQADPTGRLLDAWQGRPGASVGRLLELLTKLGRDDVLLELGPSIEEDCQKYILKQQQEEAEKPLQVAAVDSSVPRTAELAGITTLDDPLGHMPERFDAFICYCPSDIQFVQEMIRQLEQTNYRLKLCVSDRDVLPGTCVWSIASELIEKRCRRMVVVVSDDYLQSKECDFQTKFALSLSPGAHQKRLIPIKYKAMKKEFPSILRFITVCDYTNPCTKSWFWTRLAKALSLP

Effect of a mutation on the interaction, disrupting interaction:
MNKPITPSTYVACLNVGLIRKLSDFIDPQEGWKKLAVAIKKPSGDDRYNQFHIRRFEALLQTGKSPTSELLFDWGTTNCTVGDLVDLLIQNEFFAPASLLLPDAVPKTANTLPSKEAITVQQKQMPFCDKDRTLMTPVQNLEQSYMPPDSSSPENKSLEVSDTRFHSFSFYELKNVTNNFDERPISVGGNKMGEGGFGVVYKGYVNNTTVAVKKLAAMVDITTEELKQQFDQEIKVMAKCQHENLVELLGFSSDGDDLCLVYVYMPNGSLLDRLSCLDGTPPLSWHMRCKIAQGAANGINFLHENHHIHRDIKSANILLDEAFTAKISDFGLARASEKFAQTVMTSRIVGTTAYMAPEALRGEITPKSDIYSFGVVLLEIITGLPAVDEHREPQLLLDIKEEIEDEEKTIEDYIDKKMNDADSTSVEAMYSVASQCLHEKKNKRPDIKKVQQLLQEMTAS [R12A]
MNKPITPSTYVRCLNEGLIEKLSDFIDPQEGWKKLAVAIKKPSGDDRYNQFHIRRFEALLQTGKSPTSELLFDWGTTNCTVGDLVDLLIQNEFFAPASLLLPDAVPKTANTLPSKEAITVQQKQMPFCDKDRTLMTPVQNLEQSYMPPDSSSPENKSLEVSDTRFHSFSFYELKNVTNNFDERPISVGGNKMGEGGFGVVYKGYVNNTTVAVKKLAAMVDITTEELKQQFDQEIKVMAKCQHENLVELLGFSSDGDDLCLVYVYMPNGSLLDRLSCLDGTPPLSWHMRCKIAQGAANGINFLHENHHIHRDIKSANILLDEAFTAKISDFGLARASEKFAQTVMTSRIVGTTAYMAPEALRGEITPKSDIYSFGVVLLEIITGLPAVDEHREPQLLLDIKEEIEDEEKTIEDYIDKKMNDADSTSVEAMYSVASQCLHEKKNKRPDIKKVQQLLQEMTAS [V16E;R20E]
MNKPITPSTYVRCLNVGLIRKLSDFIDPQEGWKKLAVAIKKPSGDDRYNQFHIRRFEALLQTGKSPTSKLLFDWGTTNCTVGDLVDLLIQNEFFAPASLLLPDAVPKTANTLPSKEAITVQQKQMPFCDKDRTLMTPVQNLEQSYMPPDSSSPENKSLEVSDTRFHSFSFYELKNVTNNFDERPISVGGNKMGEGGFGVVYKGYVNNTTVAVKKLAAMVDITTEELKQQFDQEIKVMAKCQHENLVELLGFSSDGDDLCLVYVYMPNGSLLDRLSCLDGTPPLSWHMRCKIAQGAANGINFLHENHHIHRDIKSANILLDEAFTAKISDFGLARASEKFAQTVMTSRIVGTTAYMAPEALRGEITPKSDIYSFGVVLLEIITGLPAVDEHREPQLLLDIKEEIEDEEKTIEDYIDKKMNDADSTSVEAMYSVASQCLHEKKNKRPDIKKVQQLLQEMTAS [E69K]
MNKPITPSTYVRCLNVGLIRKLSDFIDPQEGWKKLAVAIKKPSGDDRYNQFHIRRFEALLQTGKSPTSELLFDWGTTECTVGDLVDLLIQNEFFAPASLLLPDAVPKTANTLPSKEAITVQQKQMPFCDKDRTLMTPVQNLEQSYMPPDSSSPENKSLEVSDTRFHSFSFYELKNVTNNFDERPISVGGNKMGEGGFGVVYKGYVNNTTVAVKKLAAMVDITTEELKQQFDQEIKVMAKCQHENLVELLGFSSDGDDLCLVYVYMPNGSLLDRLSCLDGTPPLSWHMRCKIAQGAANGINFLHENHHIHRDIKSANILLDEAFTAKISDFGLARASEKFAQTVMTSRIVGTTAYMAPEALRGEITPKSDIYSFGVVLLEIITGLPAVDEHREPQLLLDIKEEIEDEEKTIEDYIDKKMNDADSTSVEAMYSVASQCLHEKKNKRPDIKKVQQLLQEMTAS [N78E]
MNKPITPSTYVRCLNVGLIRKLSDFIDPQEGWKKLAVAIKKPSGDDRYNQFHIRRFEALLQTGKSPTSELLFDWGETNCTVGDLVDLLIQNEFFAPASLLLPDAVPKTANTLPSKEAITVQQKQMPFCDKDRTLMTPVQNLEQSYMPPDSSSPENKSLEVSDTRFHSFSFYELKNVTNNFDERPISVGGNKMGEGGFGVVYKGYVNNTTVAVKKLAAMVDITTEELKQQFDQEIKVMAKCQHENLVELLGFSSDGDDLCLVYVYMPNGSLLDRLSCLDGTPPLSWHMRCKIAQGAANGINFLHENHHIHRDIKSANILLDEAFTAKISDFGLARASEKFAQTVMTSRIVGTTAYMAPEALRGEITPKSDIYSFGVVLLEIITGLPAVDEHREPQLLLDIKEEIEDEEKTIEDYIDKKMNDADSTSVEAMYSVASQCLHEKKNKRPDIKKVQQLLQEMTAS [T76E]
